In patent US20170240637A1 (Memorial Sloan Kettering, published 2017):
Substitutions are numbered along the chain they refer to.

Tests used:
wild type 2Ig-B7H3-mFc [1] = molecular target: T1, wild type 2Ig-B7H3-mFc (human, UniProt Q5ZPR3-2 29-248, limits assumed); test: SPR, 400 nM antibody over immobilized WT 2Ig-B7H3-mFc
T1 construct: Q5ZPR3 canonical entry is the 4Ig isoform; the 2Ig form is its shorter isoform; also called 2Ig-B7H3-Fc; WT 2Ig-B7H3-Fc; not shown: mouse Fc
T1 sequence (looked up): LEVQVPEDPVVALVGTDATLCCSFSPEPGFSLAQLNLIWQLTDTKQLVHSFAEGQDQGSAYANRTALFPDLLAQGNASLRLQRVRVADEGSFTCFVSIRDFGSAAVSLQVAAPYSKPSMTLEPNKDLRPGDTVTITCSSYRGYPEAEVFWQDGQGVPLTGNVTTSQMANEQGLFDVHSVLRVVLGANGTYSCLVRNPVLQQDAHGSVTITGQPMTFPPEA

[2] = molecular target: T2, 2Ig-B7H3-mFc mutant R127A (human, UniProt Q5ZPR3-2 29-248, limits assumed); test: SPR, 400 nM antibody over immobilized R127A mutant
T2 construct: not shown: mouse Fc
T2 sequence (looked up): T1 sequence (looked up) with R99A

[3] = molecular target: 2Ig-B7H3-mFc mutant D128A (human) (UniProt Q5ZPR3); test: SPR, 400 nM antibody over immobilized D128A mutant
[4] = molecular target: T3, 2Ig-B7H3 without Fc fusion (human, UniProt Q5ZPR3-2 29-245, limits assumed); test: SPR, IgG on 2Ig-B7-H3 without Fc fusion
T3 construct: also called 2IgB7H3 (R&D)
T3 sequence (looked up): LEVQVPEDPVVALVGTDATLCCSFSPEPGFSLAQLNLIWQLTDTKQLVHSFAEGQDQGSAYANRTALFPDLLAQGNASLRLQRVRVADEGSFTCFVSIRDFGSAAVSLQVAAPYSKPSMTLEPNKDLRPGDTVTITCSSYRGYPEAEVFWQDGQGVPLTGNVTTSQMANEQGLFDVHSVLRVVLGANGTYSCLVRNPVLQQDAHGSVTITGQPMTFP
Method: (§1) In brief, B7H3 antigen (either 2Ig-B7H3, 4Ig-B7H3, 2Ig-B7H3-mFc, 4Ig-B7H3-mFc), was directly immobilized onto the CM5 sensor chip via […]. Reference surface was set up for nonspecific binding and refractive index changes. […] The association and dissociation phase data were fitted simultaneously to a 1:1 model by using BIAevaluation 3.2. All the experiments were done at 25° C.

[5] = molecular target: B7H3 on B7H3-positive human tumor cells (M14, LAN-1, IMR-32, HeLa) (human) (UniProt Q5ZPR3); test: cell-binding assay of 131I-labelled antibody on LAN-1 cells
[6] = molecular target: B7H3 on B7H3-positive human tumor cells (M14, LAN-1, IMR-32, HeLa) (human) (UniProt Q5ZPR3); test: cell-based or functional assay
[7] = molecular target: T3, 2Ig-B7H3 without Fc fusion; test: SPR
4Ig-B7H3 [8] = molecular target: T4, 4Ig-B7H3 (human, UniProt Q5ZPR3 27-461, limits assumed); test: SPR
T4 construct: also called 4Ig-B73H3
T4 sequence (looked up): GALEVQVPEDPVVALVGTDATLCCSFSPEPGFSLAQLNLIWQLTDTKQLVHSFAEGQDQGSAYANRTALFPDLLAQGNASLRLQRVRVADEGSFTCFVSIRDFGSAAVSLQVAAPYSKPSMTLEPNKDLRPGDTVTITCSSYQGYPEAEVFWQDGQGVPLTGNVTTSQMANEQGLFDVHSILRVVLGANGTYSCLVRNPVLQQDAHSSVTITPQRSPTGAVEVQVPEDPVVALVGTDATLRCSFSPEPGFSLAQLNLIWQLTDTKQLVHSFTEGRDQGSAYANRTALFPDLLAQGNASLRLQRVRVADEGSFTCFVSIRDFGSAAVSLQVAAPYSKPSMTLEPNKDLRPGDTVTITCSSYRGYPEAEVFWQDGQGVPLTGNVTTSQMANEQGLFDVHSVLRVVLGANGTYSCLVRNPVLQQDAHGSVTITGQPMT

4Ig-B7H3 [9] = molecular target: T4, 4Ig-B7H3; test: SPR, IgG on 4Ig-B7-H3 without Fc fusion
Method: as §1

[10] = molecular target: T5, 4Ig-B7H3 fused to mouse Fc (B7H3-mFc) (human, UniProt Q5ZPR3 29-466, limits assumed, biotinylated on primary amines (NHS-biotin) in the experiment of paragraph 316); test: SPR, IgG on 4Ig-B7H3-Fc
T5 construct: Expressed in DG44 CHO cells; also called 4Ig-B7H3-Fc; 4Ig-B7H3-mFc; not shown: mouse Fc
T5 sequence (looked up): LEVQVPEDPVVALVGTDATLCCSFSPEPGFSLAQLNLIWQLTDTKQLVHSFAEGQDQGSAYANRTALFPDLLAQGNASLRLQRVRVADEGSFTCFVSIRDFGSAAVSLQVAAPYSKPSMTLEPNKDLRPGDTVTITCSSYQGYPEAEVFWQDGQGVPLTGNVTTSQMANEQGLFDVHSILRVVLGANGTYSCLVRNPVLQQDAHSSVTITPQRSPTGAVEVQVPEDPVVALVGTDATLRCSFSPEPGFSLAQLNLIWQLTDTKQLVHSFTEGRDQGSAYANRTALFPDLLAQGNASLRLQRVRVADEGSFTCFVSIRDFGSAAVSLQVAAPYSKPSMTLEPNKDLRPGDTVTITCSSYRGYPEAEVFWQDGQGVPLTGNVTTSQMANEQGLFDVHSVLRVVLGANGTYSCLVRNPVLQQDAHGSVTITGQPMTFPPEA
Method: as §1

wild type 2Ig-B7H3-mFc [11] = molecular target: T1, wild type 2Ig-B7H3-mFc; test: SPR, IgG on 2Ig-B7H3-mFc
Method: as §1

4Ig-B7H3 [12] = molecular target: T4, 4Ig-B7H3; test: SPR, antigen on CM5 chip
Method: (§2) In brief, B7H3 antigen (either 2Ig-B7H3, 4Ig-B7H3, 2Ig-B7H3-mFc, 4Ig-B7H3-mFc), was directly immobilized onto the CM5 sensor chip via […]. Reference surface was set up for nonspecific binding and refractive index changes. For analysis of the kinetics of interactions, varying concentrations of scFvs were injected at flow rate of 30 μl/min using running buffer containing 10 mM HEPES, 150 mM NaCl, 3 mM EDTA, and 0.05% Surfactant P-20 (pH 7.4). The association and dissociation phase data were fitted simultaneously to a 1:1 model by using BIAevaluation 3.2. All the experiments were done at 25° C.

wild type 2Ig-B7H3-mFc [13] = molecular target: T1, wild type 2Ig-B7H3-mFc; test: SPR, antigen on CM5 chip
Method: as §2

4Ig-B7H3 [14] = molecular target: T4, 4Ig-B7H3; test: SPR (Biacore T-100), 4Ig-B7H3 on CM5 chip, scFv injected
Method: as §2

[15] = molecular target: T3, 2Ig-B7H3 without Fc fusion; test: ELISA, right panel '2IgB7H3', scFv serially diluted 0.01-10 µg/ml
Method: B7H3-mFc (100 ng/well) or 2IgB7H3 (R&D, Minneapolis, Minn.) (25 ng/well) were coated on polyvinyl microtiter plates in PBS overnight. Plates were then blocked with 0.5% BSA in PBS at 150 μl per well for 1 h at room temperature. Antibodies were added in triplicates with serial dilution in 0.5% BSA. Following incubation for 1 h at room temperature and washing with PBS, HRP-mouse anti-human Fc antibody, HRP-streptavidin, or HRP-mouse anti-Flag antibody was added. After incubation for 1 h at room temperature and further washing, the color was developed and quantified using an ELISA plate reader at 490 nm.

Molecule: anti-B7H3 MAb MIH42 (Thermo Scientific Pierce) (antibody)
- Max RU (wild type 2Ig-B7H3-mFc [1]): 2530 RU
- Relative binding (to WT) [2]: 76.1%
- Relative binding (to WT) [3]: 68.8%

B1: ch8H9 6.1 IgG (ch8H9 + 6 affinity maturation mutations) (antibody, V domains shown)
VH: QVQLQQSGAELVKPGASVKLSCKTSGYTFTNYDINWVRQRPGQGLEWIGWIFPGDDSTQYNEKFKGKATLTTDTSSSTAYMQLSRLTSEDSAVYFCARQTTGTWFAYWGQGTLVTVSA
VL: DIVMTQSPATLSVTPGDRVTLSCRASQSISDYLYWYQQKSHESPRLLIKYASQSISGIPSRFSGSGSGSDFTLSINSVEPEDVGVYYCQNGHSFPLTFGAGTKLELKR
- Kd [4]: 0.62 nM
- koff [4]: 4.25e-05 s⁻¹
- kon [4]: 68900 M⁻¹ s⁻¹
- in vitro immunoreactivity [5]: 73%
- ADCC EC50 (µg/ml), 51Cr release, LAN-1 targets, human PBMC effectors [6]: 0.1 µg/mL
- Fold change EC50 relative to ch8H9 (ADCC) [6]: 14 fold
- fold enhancement in binding relative to ch8H9 [7]: 2 to 4 fold
- fold enhancement in binding relative to ch8H9 (4Ig-B7H3 [8]): 2 to 4 fold
- Kd (4Ig-B7H3 [9]): 3.7 nM
- koff (4Ig-B7H3 [9]): 0.000123 s⁻¹
- kon (4Ig-B7H3 [9]): 33500 M⁻¹ s⁻¹

B2: hu8H9-H1L2 IgG1 (antibody, V domains shown)
VH: QVQLVQSGAEVKKPGASVKLSCKASGYTFTNYDINWVRQAPGQGLEWIGWIFPGDGSTQYNEKFKGKATLTTDTSTSTAYMELSSLRSEDTAVYFCARQTTATWFAYWGQGTLVTVSS
VL: B1 VL with D1E, T14S, D17E, Y34H, S60A, S69T, D70E, S74T, A100Q, L106I
- Kd [10]: 42.7 nM
- koff [10]: 0.0239 s⁻¹
- kon [10]: 560000 M⁻¹ s⁻¹
- Kd (wild type 2Ig-B7H3-mFc [11]): 68.4 nM
- koff (wild type 2Ig-B7H3-mFc [11]): 0.00116 s⁻¹
- kon (wild type 2Ig-B7H3-mFc [11]): 17000 M⁻¹ s⁻¹
- Kd (4Ig-B7H3 [12]): 34.8 nM

B3: murine 8H9 (m8H9) IgG1 monoclonal antibody (antibody, V domains shown)
VH: B1 VH with T24A, G42E, D56G, G102A
VL: DIVMTQSPATLSVTPGDRVSLSCRASQSISDYLHWYQQKSHESPRLLIKYASQSISGIPSRFSGSGSGSDFTLSINSVEPEDVGVYYCQNGHSFPLTFGAGTKLELK
modifications: 131I-labelled in the LAN-1 immunoreactivity assay; the label is not carried by the letters.
notes: also called MAb 8H9
- Kd [4]: 0.81 nM
- koff [4]: 2.24e-05 s⁻¹
- kon [4]: 27800 M⁻¹ s⁻¹
- in vitro immunoreactivity [5]: 69%
- Kd (wild type 2Ig-B7H3-mFc [13]): 0.28 nM
- koff (wild type 2Ig-B7H3-mFc [13]): 1.03e-05 s⁻¹
- kon (wild type 2Ig-B7H3-mFc [13]): 36700 M⁻¹ s⁻¹
- Kd (4Ig-B7H3 [9]): 8.9 nM
- koff (4Ig-B7H3 [9]): 0.000165 s⁻¹
- kon (4Ig-B7H3 [9]): 18500 M⁻¹ s⁻¹

B4: hu8H9-H2L2 IgG1 (antibody, V domains shown)
VH: B2 VH with K12V, S85R, R87T
VL: B1 VL with D1E, T14S, D17E, Y34H, S60A, S69T, D70E, S74T, A100Q, L106I
- Kd (4Ig-B7H3 [12]): 38.6 nM

B5: hu8H9-H2L1 IgG1 (antibody, V domains shown)
VH: B2 VH with K12V, S85R, R87T
VL: EIVMTQSPATLSVSPGERVTLSCRASQSISDYLHWYQQKPGQAPRLLIKYASQSISGIPARFSGSGSGTEFTLTISSVQPEDVGVYYCQNGHSFPLTFGQGTKLEIKR
- Kd (4Ig-B7H3 [12]): 34.8 nM

B6: hu8H9 clone S3.3 scFv (scFv)
scFv: QVQLVQSGAEVVKPGASVKLSCKTSGYTFTNYDINWVRQRPGQGLEWIGWIFPGDGSTQYNEKFKGKATLTTDTSTSTAYMELSSLRSEDTAVYFCARQTTATWFAYWGQGTLVTVSSGGGGSGGGGSGGGGSEIVMTQSPATLSVSPGERVTLSCRASQSISDYLYWYQQKSHESPRLLIKYASQSISGIPARFSGSGSGSEFTLTINSVEPEDVGVYYCQNGHSFPLTFGQGTKLELKR
notes: also called Sort3; not shown: FLAG and His tags
- Kd (4Ig-B7H3 [14]): 9.85 nM
- koff (4Ig-B7H3 [14]): 0.000244 s⁻¹
- kon (4Ig-B7H3 [14]): 24800 M⁻¹ s⁻¹
- EC50 (read off the curve) [15]: ~0.2 µg/mL
